Laboratory results: US20160097044A1, “Antimicrobial Enzyme Fusions Reduce Resistance and Kill Intracellular Staphylococcus aureus” (The United States of America, as Represented by the …, priority 2014, published 2016)

Experiments:
S. warneri MP06 = test: Minimum Inhibitory Concentration (MIC) assay; assay type: cell-based, Staphylococcus warneri; conditions: Mastitis isolate S. warneri MP06
S. aureus Newman = test: Minimum Inhibitory Concentration (MIC) assay; assay type: cell-based
Procedure: (§1) The Minimum Inhibitory Concentrations (MIC) of each protein for multiple S. aureus strains was determined as previously described (Jones et al. 1985. In: Manual of Clinical Microbiology, Eds. Balows et al. American Society of Microbiology, Washington D.C., pp. 972-977) with the following modifications. Enzymes were serially diluted two fold across a 96 well plate, such that after dilution, 50 μl of the enzyme solution in 300 mM NaCl, 50 mM NaH2PO4, 30% glycerol pH 7.5, remained in each well. To each well was added 50 μl of TSB and 100 μl of S. aureus Newman in TSB (diluted to 5×10^6 cells/ml). The plates were incubated 20 h at 37° C. and read with a 96 well plate reader. MIC determination values were reported as the median of ≧4 replicates (Table 1).

Sanger 252 (NRS 71) = test: Minimum Inhibitory Concentration (MIC) assay; assay type: cell-based, S. aureus
Procedure: as §1

NRS 194 = test: Minimum Inhibitory Concentration (MIC) assay; assay type: cell-based, S. aureus
Procedure: as §1

NRS 209 = test: Minimum Inhibitory Concentration (MIC) assay; assay type: cell-based, S. aureus
Procedure: as §1

USA 100 (NRS 382) = test: Minimum Inhibitory Concentration (MIC) assay; assay type: cell-based, S. aureus
Procedure: as §1

USA 400 (NRS 123) = test: Minimum Inhibitory Concentration (MIC) assay; assay type: cell-based, S. aureus
Procedure: as §1

NRS 271 = test: Minimum Inhibitory Concentration (MIC) assay; assay type: cell-based, S. aureus
Procedure: as §1

USA 200 (NRS 383) = test: Minimum Inhibitory Concentration (MIC) assay; assay type: cell-based, S. aureus
Procedure: as §1

NRS 193 = test: Minimum Inhibitory Concentration (MIC) assay; assay type: cell-based, S. aureus
Procedure: as §1

NRS 192 = test: Minimum Inhibitory Concentration (MIC) assay; assay type: cell-based, S. aureus
Procedure: as §1

USA 600 (NRS 22) = test: Minimum Inhibitory Concentration (MIC) assay; assay type: cell-based, S. aureus
Procedure: as §1

N315 (NRS 70) = test: Minimum Inhibitory Concentration (MIC) assay; assay type: cell-based, S. aureus
Procedure: as §1

USA 300 (NRS 384) = test: Minimum Inhibitory Concentration (MIC) assay; assay type: cell-based, S. aureus
Procedure: as §1

USA 500 (NRS 385) = test: Minimum Inhibitory Concentration (MIC) assay; assay type: cell-based, S. aureus
Procedure: as §1

S. aureus strain Newman = assay type: cell-based; conditions: tenth round compared to first exposure
Procedure: For the MIC repeated exposure method, MIC determinations were performed with S. aureus strain Newman. 100 μl of S. aureus strain Newman culture that survived at ½ the MIC (the first well with visible growth) for each round was inoculated into 5 ml TSB and cultivated to mid-log phase growth. This culture was used as the inoculum for the next round of MIC exposure (overnight growth), and the cycle was repeated for 10 rounds.
Development of resistance to the triple-acting fusion enzymes was tested on S. aureus strain Newman and compared to both parental enzymes applied individually or simultaneously. […] Survivors of the ten round exposure to peptidoglycan hydrolase were passaged five times in medium with no peptidoglycan hydrolase added. […] We compared our triple-acting fusions to small molecule antibiotics in similar assays.

S. hyicus MP01 = test: Minimum Inhibitory Concentration (MIC) assay; assay type: cell-based, Staphylococcus hyicus; conditions: Mastitis isolate S. hyicus MP01
S. aureus SA113 biofilms = test: Static biofilm reduction model; assay type: cell-based; conditions: 1 h treatment, compared to buffer treated biofilms
Procedure: S. aureus SA113 biofilms were treated for 1 h with 100 μl of each enzyme individually or as equimolar mixtures of LysK and lysostaphin (white bars) in 300 mM NaCl, 50 mM NaH2PO4, 30% glycerol. Constructs are named as in FIG. 1a. Results are reported as the percentage reduction in biofilm compared to buffer treated biofilms. Data presented represents 4 replicates. Values represent means±[…]. Asterisks indicate significant differences (single factor ANOVA with t-test post hoc analysis Sidák correction) as compared to LysK (K) at that concentration. Adjusted alpha p<0.026. Peptidoglycan hydrolase constructs: lysostaphin (L), LysK (K), triple fusion K-L, and triple fusion (L-K), as named in FIG. 1a.
In the static biofilm reduction model, biofilms were produced as previously described (Gross et al. 2001. Infect. Immun. 69:3423-3426) with the following modifications. S. aureus strains were grown overnight in 5 ml TSB supplemented with 0.25% D(+)-glucose without shaking at 37° C. The culture was diluted 1/200 in fresh culture medium, and 200 μl was added to each well of a 96 well microtiter plate and incubated without shaking for 24 h at 37° C. Biofilms in the wells were washed twice with 200 μl SLB, treated with […] peptidoglycan hydrolase (Lysostaphin, LysK and the triple fusion proteins K-L and L-K) in SLB at concentrations indicated (FIG. 4) for 1 h at room temperature, and washed twice with 100 μl SLB. Adherent bacteria were fixed with 200 μl 95% ethanol-5% glacial acetic acid for 20 min, washed once with water, and stained with 100 μl 0.4% crystal violet for 15 min at room temperature. Excess stain was removed with 3 water washes. Bound stain was resolubilized in 33% acetic acid, and 20 μl was transferred to a 96 well plate containing 180 μl water. The OD590nm was determined in a Spectra Max plate reader. Percent reduction represents the difference in absorbance between biofilms exposed to buffer only and experimental wells that were exposed to the peptidoglycan hydrolases.
Static biofilms were created with S. aureus strain SA113 in 96 well dishes and treated for one hour with 100 μl of the indicated concentrations of each enzyme individually or as an equimolar mixture of LysK and lysostaphin.

B1: L-K: LysK lytic domains inserted between lysostaphin's M23 endopeptidase domain and SH3b cell wall binding domain; SEQ ID NO:7, protein SEQ ID NO:8 (protein)
chain: MAATHEHSAQWLNNYKKGYGYGPYPLGINGGMHYGVDFFMNIGTPVKAISSGKIVEAGWSNYGGGNQIGLIENDGVHRQWYMHLSKYNVKVGDYVKAGQIIGWSGSTGYSTAPHLHFQRMVNSFSNSTAQDPMPFLKSAGYGKAGGTVTPTPNTGLDAKTQAEINKRLDAYAKGTVDSPYRVKKATSYDPSFGVMEAGAIDADGYYHAQCQDLITDYVLWLTDNKVRTWGNAKDQIKQSYGTGFKIHENKPSTVPKKGWIAVFTSGSYEQWGHIGIVYDGGNTSTFTILEQNWNGYANKKPTKRVDNYYGLTHFIEIPVKAGTTVKKETAKKSASKTPAPKKKATLKVSKNHINYTMDKRGKKPEGMVIHNDAGRSSGQQYENSLANAGYARYANGIAHYYGSEGYVWEAIDAKNQIAWHTGDGTGANSGNFRFAGIEVCQSMSASDAQFLKNEQAVFQFTAEKFKEWGLTPNRKTVRLHMEFVPTACPHRSMVLHTGFNPVTQGRPSQAIMNKLKDYFIKQIKNYMDKGTSSSTVVKDGKTSSASLDTVTPTPNTGWKTNKYGTLYKSESASFTPNTDIITRTTGPFRSMPQSGVLKAGQTIHYDEVMKQDGHVWVGYTGNSGQRIYLPVRTWNKSTNTLGVLWGTIKLEHHHHHH
modifications: Staphylococcus simulans & Phage K
S. warneri MP06
  Minimum Inhibitory Conc. (median μg/ml): 1.5 µg/mL
S. aureus Newman; S. aureus Newman
  Minimum Inhibitory Conc. (median μg/ml): 7.8 µg/mL
S. aureus Newman; first exposure of the resistance development experiment, FIG. 1b
  First exposure MIC: 7.8 µg/mL
S. aureus Newman; first exposure, molar concentration in brackets
  First exposure MIC: 0.107 µM
Sanger 252 (NRS 71)
  Minimum Inhibitory Conc. (median μg/ml): 6.8 µg/mL
NRS 194
  Minimum Inhibitory Conc. (median μg/ml): 12 µg/mL
NRS 209
  Minimum Inhibitory Conc. (median μg/ml): 12 µg/mL
USA 100 (NRS 382)
  Minimum Inhibitory Conc. (median μg/ml): 20 µg/mL
USA 400 (NRS 123)
  Minimum Inhibitory Conc. (median μg/ml): 16 µg/mL
NRS 271
  Minimum Inhibitory Conc. (median μg/ml): 9.8 µg/mL
USA 200 (NRS 383)
  Minimum Inhibitory Conc. (median μg/ml): 5.9 µg/mL
NRS 193
  Minimum Inhibitory Conc. (median μg/ml): 12 µg/mL
NRS 192
  Minimum Inhibitory Conc. (median μg/ml): 16 µg/mL
USA 600 (NRS 22)
  Minimum Inhibitory Conc. (median μg/ml): 6.8 µg/mL
N315 (NRS 70)
  Minimum Inhibitory Conc. (median μg/ml): 16 µg/mL
USA 300 (NRS 384)
  Minimum Inhibitory Conc. (median μg/ml): 20 µg/mL
USA 500 (NRS 385)
  Minimum Inhibitory Conc. (median μg/ml): 12 µg/mL
S. aureus strain Newman
  increase in MIC after 10 rounds of sub-lethal exposure: 2 fold
S. hyicus MP01
  Minimum Inhibitory Conc. (median μg/ml): 0.37 µg/mL
S. aureus SA113 biofilms
  static biofilm reduction (in words): effectively reduced staphylococcal biofilms
